Results on one molecule are retold here after patent US20190183138A1, “MILK COAGULANT AND METHOD FOR PRODUCING CHEESE” (CHINA AGRICULTURAL UNIVERSITY, priority 2017, published 2019).

The test system of the data set is 12% skim milk. Description: Milk clotting activity (MCA) assay, curd formation time. The settings on record: 12% skim milk in 10 mM CaCl2, pH 6.5, 37° C.; FIG. 5. The class given is biochemical. The procedure: The MCA of the C. otophyllum proteases was determined using a modified method of He et al. (2011). One milliliter of substrate (12% skim milk in 10 mM CaCl2, pH 6.5) was incubated under 37° C. for 5 min, then 0.1 mL of the protease extracted solution was added. The time needed for curd formation was recorded and the MCA was expressed in Soxhlet units (SU). One SU of MCA was defined as the amount of the protease extracted solution required to clot 1 mL of substrate within 40 min at 37° C.
where V stands for the volume of the substrate (mL); v stands for the volume of the protease extract; and t stands for the milk-clotting time (s).
The C. otophyllum proteases were extracted as described by Huang et al. (2011) with some modifications. The C. otophyllum leaves were cut into pieces, mixed with a buffer at different solid-liquid ratios (i.e. ratio of mass to volume) for extraction, and then left for 2 h under 4° C., thus obtaining an extracted solution. After successive filtration through 4 layers of cheesecloth and a 0.22-μm membrane, the filtrate was concentrated by ultrafiltration with a 10-kDa molecular weight cut-off membrane at 8000 × g for 40 minutes at 4° C., with the retentate obtained as the concentrated solution of C. otophyllum proteases, which was assayed for protein concentration following the method of Bradford (1976) and curd formation time for 12% (w/v) skim milk.

B1: papain (protein, UniProt P00784 134-345, looked up)
Papain: IPEYVDWRQKGAVTPVKNQGSCGSCWAFSAVVTIEGIIKIRTGNLNEYSEQELLDCDRRSYGCNGGYPWSALQLVAQYGIHYRNTYPYEGVQRYCRSREKGPYAAKTDGVRQVQPYNEGALLYSIANQPVSVVLEAAGKDFQLYRGGIFVGPCGNKVDHAVAAVGYGPNYILIKNSWGTGWGENGYIRIKRGTGNSYGVCGLYTSSFYPVKN
notes: cysteine protease from Sigma-Aldrich used as comparison
Take B1: the “MCA (milk-clotting activity)” value came out at 100.2 SU/mg.
